Source: the Human Domainome abundance scans (Beltran et al. 2025)

B1: POU domain, class 6, transcription factor 2, residues 609 to 663; numbered along this chain, P78424 (parent)
chain: KRRTSFTPQALEILNAHFEKNTHPSGQEMTEIAEKLNYDREVVRVWFCNKRQALK
B2: Homeobox protein cut-like 2, residues 895 to 963; numbered along this chain, O14529 (parent)
chain: EVDTLELTRQVKEKLAKNGICQRIFGEKVLGLSQGSVSDMLSRPKPWSKLTQKGREPFIRMQLWLSDQL

Variants of: B1
Assay: abundance fitness (aPCA) (normalised: wild type 0, dead -1); higher = more abundant; growth selection in yeast, the domain comes from the species named
Conditions: Homo sapiens

Abundance fitness: each site, then its substitutions
I13: Q -0.132, T -0.003, A -0.01, G -0.385, H -0.172, M -0.218, P -0.98, F -0.113, C -0.113, L -0.017, W -0.219, Y 0.002, S -0.279, E -0.251
N15: Y -0.615, S -0.193, F -0.543, P -0.378, Q -0.281, A -0.247, V -0.307, I -0.78, C -0.086, W -0.361, L -0.15, K -0.13, M -0.132, D -0.093, T -0.217, R -0.217, H -0.085
S5: D -0.063, H -0.245, R -0.113, L -0.06, Q 0.221, Y -0.147, T 0.12, C -0.039, N -0.075, A 0.019, E 0.083, W -0.11, P -0.032, M -0.127, F -0.031, K 0.035, I 0.079, V 0.015, G 0.041
L14: K -0.874, W -1.03, S -1.05, P -0.852, H -0.788, N -1.06, V -0.729, I -0.898, Q -0.819, D -0.972, G -0.919, Y -0.878, T -0.936, E -1.07, A -0.969, C -0.734, F -0.877
T7: S -0.042, E 0.05, C -0.079, F -0.867, P 0.04, R -0.321, I -0.615, L -0.288, Y -0.637, G -0.007, H -0.226, K -0.565, M -0.395, D -0.402, A -0.2, W -0.409, V -0.403, N -0.303
Q9: P -0.028, W -0.184, D -0.12, H -0.049, S -0.207, Y -0.088, I -0.057, E -0.432, K -0.037, M -0.041, N -0.141, L -0.253, G -0.06, T -0.106
R2: I -0.059, C -0.345, G -0.034, S 0.106, F -0.056, E 0.108, A 0.038, M 0.064, N 0.095, P -0.118, H -0.144, Q 0.026, T 0.041, W -0.334
P8: Q -0.365, R -0.148, N -0.072, Y -0.572, V 0.004, D 0.038, A 0.022, S 0.05, W -0.394, C -0.023, M 0.037, T 0.477, F -0.147, K -0.138, H -0.177, I -0.189, L -0.057
F6: H -0.272, M -0.042, A -0.354, G -0.326, E -0.191, L 0.135, C -0.15, P 0.039, D -0.246, N -0.267, W -0.025, T -0.134, I 0.092, R -0.423, Q -0.28, S -0.415, Y -0.187
K1: G 0.157, N 0.043, L -0.465, T -0.077, W -0.267, H -0.309, I 0.111, R -0.269, S -0.275, Y -0.41, V -0.776, E -0.632, A -0.19, D -0.161
A10: E 0.062, F -0.538, R -0.904, Y -0.76, N -0.106, D -0.015, G -0.087, K -0.587, M -0.206, S -0.262, V -0.227, Q -0.107, L -0.51, C -0.154, W -0.87
F18: P -1.07, V -0.713, W -0.086, Y 0.107, Q -0.937, K -0.927, T -0.961, I -0.562, C -0.522, H -0.698, E -0.892, N -1.06, M -0.76, G -0.848, R -0.856, S -0.593
E12: G -0.105, W -0.233, R -0.107, P -0.724, S -0.009, K -0.695, M -0.222, A -0.401, C -0.261, Q -0.298, V -0.331, L -0.403, D -0.002
T4: L -0.063, F -0.333, V -0.106, C -0.058, K -0.123, R -0.204, E 0.045, H -0.028, D -0.083, A -0.09, S -0.001, I -0.364, G -0.089, Y -0.15, M -0.148, Q -0.203
H17: G -0.369, E 0.064, Y -0.065, D -0.156, M -0.028, C -0.063, W 0.011, A -0.03, I -0.028, L -0.008, Q -0.002, S -0.065, N -0.101, R -0.101, V -0.031, F -0.056, P -0.961, K 0.04
L11: P -1.01, M -0.092, Q -0.435, A -0.279, G -0.477, Y -0.339, C -0.409, H -0.482, S -0.283, D -0.622, E -0.002, R -0.222, V 0.053, F -0.498
R3: A -0.136, P 0.004, I 0.136, L 0.057, V -0.001, D 0.054, K -0.009, T -0.134, N 0.208, F 0.053, S 0.02, W -0.265, E 0.043, M 0.01, G -0.035, C -0.236, Q -0.073
E19: C -0.085, D -0.037, F -0.288, A 0.046
A16: F -0.091, D 0.113, V -0.078, Y -0.151, C -0.164, I -0.183, H 0.044, N 0.02, M 0.016, G -0.049, S -0.16, R -0.084, Q 0.019, P -0.865, E -0.002, K -0.044, L -0.054, W -0.164

Variants of: B2
Assay: as above
Conditions: Homo sapiens

Abundance fitness, by site and new letter:
L63: A 0.058
L7: N 0.034, M 0.055
K49: P -0.731
V29: A -0.36
G31: W -0.367, L -0.314
F58: V -0.662
Q52: V -0.034
A16: D -0.055
K45: F -0.243, H -0.288
D39: K -0.441, P -0.184
R55: Y -0.76
V2: F -0.024, M 0.077
R9: E -0.1
K12: G -0.516
L65: F -0.193
P44: S -0.171
R43: E -0.124
R23: H -0.094
I59: Q 0.031
Q22: C -0.306
P46: K -0.095
D67: A -0.207, C -0.576, G 0.009
V11: G -0.146
G19: T -0.332
E1: C 0.037
I24: A -0.117, K -0.084
P57: V -0.117
S48: F -0.19
Q62: M -0.153
L50: Q -0.874
Q34: V 0.073
K17: H -0.382, N -0.011
E27: S -0.006
